# Data reported in patent US20220195070A1.
# Key:
# [1] = biological target: Anti-hC5 Antibody; experiment: sandwich ELISA: SKA antibody coated, Anti-hC5 Antibody in pooled human serum, then human C5, mouse anti-hC5, anti-mouse-POD; incubation 14 min; blank OD 0.028
# [2] = biological target: Anti-hC5 Antibody; experiment: sandwich ELISA: SKA antibody coated, Anti-hC5 Antibody in pooled human serum; OD spiked / OD blank
# [3] = biological target: Anti-hC5 Antibody; experiment: SPR (Biacore T200), 25 C, pH 7.4; SKA antibody captured by anti-rabbit IgG, Anti-hC5 Antibody injected 0-800 nM
# [4] = biological target: Anti-hC5 Antibody; experiment: SPR (Biacore T200), 25 C, pH 7.4; SKA antibody captured by anti-rabbit IgG, Anti-hC5 Antibody injected 0-800 nM; *reliability might be low
# [5] = biological target: Anti-hC5 Antibody; experiment: sandwich ELISA: SKA antibody coated, Anti-hC5 Antibody in pooled human serum, then human C5, mouse anti-hC5, anti-mouse-POD; incubation 21 min; blank OD 0.032
# [6] = biological target: Anti-hC5 Antibody; experiment: sandwich ELISA: SKA antibody coated, Anti-hC5 Antibody in pooled human serum, then human C5, mouse anti-hC5, anti-mouse-POD; incubation 9 min; blank OD 0.027
# [7] = biological target: Anti-hC5 Antibody; experiment: sandwich ELISA: SKA antibody coated, Anti-hC5 Antibody in pooled human serum, then human C5, mouse anti-hC5, anti-mouse-POD; incubation 9 min; blank OD 0.028
# [8] = biological target: Anti-hC5 Antibody; experiment: sandwich ELISA: SKA antibody coated, Anti-hC5 Antibody in pooled human serum, then human C5, mouse anti-hC5, anti-mouse-POD; incubation 11 min; blank OD 0.027
# [9] = biological target: Anti-hC5 Antibody; experiment: sandwich ELISA: SKA antibody coated, Anti-hC5 Antibody in pooled human serum, then human C5, mouse anti-hC5, anti-mouse-POD; incubation 8 min; blank OD 0.026
# [10] = biological target: Anti-hC5 Antibody; experiment: sandwich ELISA: SKA antibody coated, Anti-hC5 Antibody in pooled human serum, then human C5, mouse anti-hC5, anti-mouse-POD; incubation 19 min; blank OD 0.030
# [11] = biological target: Anti-hC5 Antibody; experiment: sandwich ELISA: SKA antibody coated, Anti-hC5 Antibody in pooled human serum, then human C5, mouse anti-hC5, anti-mouse-POD; incubation 18 min; blank OD 0.032
# [12] = biological target: Anti-hC5 Antibody; experiment: sandwich ELISA: SKA antibody coated, Anti-hC5 Antibody in pooled human serum, then human C5, mouse anti-hC5, anti-mouse-POD; incubation 8 min; blank OD 0.027
# [13] = biological target: Anti-hC5 Antibody; experiment: sandwich ELISA: SKA antibody coated, Anti-hC5 Antibody in pooled human serum, then human C5, mouse anti-hC5, anti-mouse-POD; incubation 16 min; blank OD 0.030
# Anti-hC5 Antibody, sequence (constant, as listed by the source limits assumed): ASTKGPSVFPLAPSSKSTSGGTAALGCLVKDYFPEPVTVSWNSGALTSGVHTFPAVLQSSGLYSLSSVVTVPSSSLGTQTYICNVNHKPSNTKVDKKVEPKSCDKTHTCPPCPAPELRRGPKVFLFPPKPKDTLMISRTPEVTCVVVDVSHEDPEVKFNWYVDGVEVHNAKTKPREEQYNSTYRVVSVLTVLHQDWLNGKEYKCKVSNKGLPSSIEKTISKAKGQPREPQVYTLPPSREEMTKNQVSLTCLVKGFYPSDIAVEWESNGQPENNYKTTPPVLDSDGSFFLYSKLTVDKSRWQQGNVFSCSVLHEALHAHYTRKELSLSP
Signal to noise ratio [2],koff [3],kon [3],Binder,also measured
2.8,0.000254 s⁻¹,71800 M⁻¹ s⁻¹,"SKA0127 (antibody, V domains shown) VH: QSVEESGGRLVTPGTPLTLTCTVSGIDLSTYAMTWVRQAPGKGLEYIGYINGGGSAYYASWVNGRFTISKTSTTADLKITSPTTEDTATYFCARGPVGSYHRIWGPGTLVTVSS VL: ALVMTQTPSSVSEPVGGTVTINCRASEDIESYLAWYQQKPGQPPKLLIYATSNLETGVPSRFKGSGSGTDYTLTISGVQCADAATYYCQGYYELSSIDNNAFGGGTEVVVKG",OD (Anti-hC5 Antibody spiked) [1]: 0.078 OD; Kd [3]: 3.54 nM
2.3,5.17e-05 s⁻¹,88500 M⁻¹ s⁻¹,"SKA0046 (antibody, V domains shown) VH: QEQLVESGGGLVQPEGSLTLTCTASGFSLSSSNYMWWVRQAPGKGLEWIACIHASSSGDTYYANWAKGRFTISKTSSTTVTLQMTSLTAADTATYFCARGGYIYGDGGYNGVAGFSLWGPGTLVTVSS VL: DVVMTQTPASVSEPVGGTVTIKCQASETIGNALAWYQQKPGQRPKLLIYGASNLESGVPSRFKGSGSGTEFTLTISDVQCDDAATYYCQSIYYSSSADTFFFPFGGGTEVVVKG",Kd [4]: 0.585 nM; OD (Anti-hC5 Antibody spiked) [5]: 0.075 OD
3.4,,,"SKA0027 (antibody, V domains shown) VH: QEQLVESGGGLVQPEGSLTLTCTASGFSFSSSDYMCWVRQAPGKGLEWIGCIYTGSGSTYYASWAKGRFTISKTSSTTVTLQMTSLTAADTATFFCARRGDSYSNYSFKLWGPGTLVTVSS VL: AFELTQTPASVEAAVGGTVTIKCQASQNIYSNLAWYQQKPGQPPKLLIYTASSLASGVSSRFKGSGSGTEFTLTISDLECDDAATYYCQCTYINNGYGNTFGGGTEVVVKG",OD (Anti-hC5 Antibody spiked) [6]: 0.093 OD
3.2,,76900 M⁻¹ s⁻¹,"SKA0009 (antibody, V domains shown) VH: QSVEESGGRLVTPGTSLTLTCTVSGIDLSSYGMGWVRQAPGMGLEYIGIIYAAGRTYYASWVKGRFIISKTSTTVDLEMTSLTTEDTATYFCARHGSWYAGMDLWGPGTLVTVSS VL: AIEMTQTPSPVSAAVGGTVSINCQASEDIENYFAWYQQKPGQPPKLLIYDASELASGVPSRFSGSGSGTDFTLTISGVQCDDAATYYCQHADYAASSENTFGGGTEVVVKG",OD (Anti-hC5 Antibody spiked) [7]: 0.089 OD; Kd [4]: 0.0184 nM; koff [4]: 1.41e-06 s⁻¹
3.7,0.000196 s⁻¹,108000 M⁻¹ s⁻¹,"SKA0052 (antibody, V domains shown) VH: QSLEESGGDLVKSGASLTLTCTASGFSFSSSYYMCWVRQAPGKGLEWIACIYTGSNGDTYYASWANGRFTISKASSTTVTLQMTSLTAADTATYFCARYTYDDDGDYTSFNLWGPGTLVTVSS VL: ALVMTQTPSSVSADVGGTVTINCQASQNIYRNLAWYQQKPGQRPKLLIYGASNLEPGVPSRFKGSGSGTEFTLTISDLECDDAATYYCQSVGYSGSVDTFFYAFGGGTEVVVKG",OD (Anti-hC5 Antibody spiked) [8]: 0.098 OD; Kd [3]: 1.81 nM
4.1,,,"SKA0117 (antibody, V domains shown) VH: QSLEESGGDLVKPEGSLTLTCTASGFSFSSSHYMCWVRQAPGKGLEWIACIYAGSSDNTYYASWAKGRFTISKTSSTTVTLQMTSLTAADTATYFCARDTYGYVGYASAGGFFNLWGPGTLVTVSS VL: ALVMTQTPASVSAAVGGTVTINCQASHNIYSVLAWYQQKPGQRPRLLIYGASNLESGVPSRFKGSGSGTEYTLTISDLECDDAATYYCQSAYYSSSTGDNAFGGGTEVVVKG",OD (Anti-hC5 Antibody spiked) [6]: 0.112 OD
4.2,,,"SKA0141 (antibody, V domains shown) VH: QSLEESGGDLVKPGASLTLTCTASGFSFSSSYYMCWVRQAPGKGLEWIACIYAGSSGSTYYASWAKGRFTISKTSSTTVTLQMTSLTAADTATYFCARDGDENMLVGGYFNLWGPGTLVTVSS VL: ALVMTQTPSSVSAAVGGTVTINCQASHNIYSNLAWYQQKPGQRPKLLIYGASNLESGVPSRFKGSGSGTEYTLTISDLECDDAATYYCQSAYYSSNAGYNAFGGGTEVVVKG",OD (Anti-hC5 Antibody spiked) [9]: 0.109 OD
2.6,0.000197 s⁻¹,27300 M⁻¹ s⁻¹,"SKA0054 (antibody, V domains shown) VH: QSLEESGGGLVQPEGSLTLTCTASGFSFSSSFWICWVRQAPGKGLEWLACIDAGSSDNTYYANWAKGRFTISKTSSTTVTLQMTSLTDADTATYFCARDRDAAGDAGYGYATSFNLWGPGTLVTVSS VL: AIDMTQTPSSVSAAVGGTVTINCQASESIYSNLAWYQQKPGQRPKLLIYLASTLASGVPSRFKGSGSGTEFTLTISDLECADAATYYCQSVYYDSRGDTFFWAFGGGTEVVVKG",OD (Anti-hC5 Antibody spiked) [10]: 0.077 OD; Kd [3]: 7.22 nM
2.5,,,"SKA0001 (antibody, V domains shown) VH: QSVEESGGRLVTPGTPLTLTCTVSGFSLSYYAMNWVRQAPGKGLEWIGIIGISGGTYYASWAKGRFTISKSSSTTVDLKMTSPTTEDTATYFCARGGSAWGDLWGQGTLVTVSS VL: DIVMTQTPSSVSAAVGGTVTINCQASQSISRLLAWYQQKPGQPPKVLMHDASDLASGVPSRFKGSGSGTEYTLTISDLECADAATYYCQSYYWGSSGDIGYPFGGGTEVVVKG",OD (Anti-hC5 Antibody spiked) [11]: 0.079 OD
4,,,"SKA0171 (antibody, V domains shown) VH: QSLEESGGGLVQPEGSLTLSCTASGFSFSSSYYMCWVRQAPGKGLEWIACIYGGNSVITYYANWAKGRFTISETSSTTVTLQMTSLTAADTATYFCAREVHYDYLYTTYGYANLWGPGTLVTVSS VL: AIKMTQTPASVSAVVGGTVTINCQASETIYSGLAWYQQKPGQPPKLLIYDTANLETGVSSRFKGSGSGTEYTLTISDLECDDAATYFCLYAYYSGGSADNAFGGGTEVVVKG",OD (Anti-hC5 Antibody spiked) [12]: 0.106 OD
2.5,,30900 M⁻¹ s⁻¹,"SKA0016 (antibody, V domains shown) VH: QEQLVESGGGLVQPEGSLTLTCTASGFSFSSSDYMCWVRQAPGKGLEWIACIYIGSNGDTFYASWAKGRFTISKTSSTTVTLQMTSLTAADTATYFCARDSRRADDYGTRLDLWGQGTLVTVSS VL: DIVMTQTPSSVSAAVGGTVTIKCQASQNIYRNLAWYQQKPGQPPKLLIYQASKLESGVPSRFKGSGSGTEFTLTISDLDCDDAASYYCQSISYISSGDTFFWAFGGGTEVVVKG",OD (Anti-hC5 Antibody spiked) [13]: 0.076 OD; Kd [4]: 0.0191 nM; koff [4]: 5.9e-07 s⁻¹
3,,,"SKA0028 (antibody, V domains shown) VH: QSVEESGGRLVTPGTPLTLTCTASGFTISSYHMSWVRQAPGKGLEWIGIIHGSGNMWYASWAKGRFTISRTSTTVDLEITSPTTEDTATYFCARIRFWASSNYYYFYLWGQGTLVTVSS VL: ALVMTQTPASVSEPVGGTVTINCQASQNIYSNLAWYQQKPGQRPRLLIYGASNLESGVPSRFRGSGSGTEFTLTISDLECADAATYYCQSAYWGNNNDGAFGGGTEVVVKG",OD (Anti-hC5 Antibody spiked) [13]: 0.091 OD
